T1: HCMV UL44 (DNA polymerase processivity factor), full-length, yeast two-hybrid fusion (human cytomegalovirus (HCMV)), P16790
T1 chain: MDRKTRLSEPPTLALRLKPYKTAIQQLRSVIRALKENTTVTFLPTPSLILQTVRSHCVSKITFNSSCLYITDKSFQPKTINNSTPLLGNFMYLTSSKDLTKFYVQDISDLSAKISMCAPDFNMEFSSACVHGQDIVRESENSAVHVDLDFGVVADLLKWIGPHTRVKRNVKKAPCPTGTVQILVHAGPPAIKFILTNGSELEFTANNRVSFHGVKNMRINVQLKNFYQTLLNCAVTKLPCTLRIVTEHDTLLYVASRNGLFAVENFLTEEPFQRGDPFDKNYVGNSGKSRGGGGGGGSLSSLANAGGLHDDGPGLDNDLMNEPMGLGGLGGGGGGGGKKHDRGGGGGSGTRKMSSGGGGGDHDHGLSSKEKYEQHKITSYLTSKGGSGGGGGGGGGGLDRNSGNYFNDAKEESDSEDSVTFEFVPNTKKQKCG

B1: HCMV UL44 (DNA polymerase processivity factor), full-length, yeast two-hybrid fusion, P16790 1-433 (natural protein)
chain: T1 chain
B2: HCMV UL44 (DNA polymerase processivity factor), full-length, yeast two-hybrid fusion (natural protein)
chain: T1 chain
notes: also called LexA-UL44; GAD-UL44; source: yeast two-hybrid fusion (S. cerevisiae L40)
B3: HCMV UL54 (DNA polymerase catalytic subunit), GAD fusion (enzyme)
chain: MFFNPYLSGGVTGGAVAGGRRQRSQPGSAQGSGKRPPQKQFLQIVPRGVMFDGQTGLIKHKTGRLPLMFYREIKHLLSHDMVWPCPWRETLVGRVVGPIRFHTYDQTDAVLFFDSPENVSPRYRQHLVPSGNVLRFFGATEHGYSICVNVFGQRSYFYCEYSDTDRLREVIASVGELVPEPRTPYAVSVTPATKTSIYGYGTRPVPDLQCVSISNWTMARKIGEYLLEQGFPVYEVRVDPLTRLVIDRRITTFGWCSVNRYDWRQQGRASTCDIEVDCDVSDLVAVPDDSSWPRYRCLSFDIECMSGEGGFPCAEKSDDIVIQISCVCYETGGNTAVDQGIPNGNDGRGCTSEGVIFGHSGLHLFTIGTCGQVGPDVDVYEFPSEYELLLGFMLFFQRYAPAFVTGYNINSFDLKYILTRLEYLYKVDSQRFCKLPTAQGGRFFLHSPAVGFKRQYAAAFPSASHNNPASTAATKVYIAGSVVIDMYPVCMAKTNSPNYKLNTMAELYLRQRKDDLSYKDIPRCFVANAEGRAQVGRYCLQDAVLVRDLFNTINFHYEAGAIARLAKIPLRRVIFDGQQIRIYTSLLDECACRDFILPNHYSKGTTVPETNSVAVSPNAAIISTAAVPGDAGSVAAMFQMSPPLQSAPSSQDGVSPGSGSNSSSSVGVFSVGSGSSGGVGVSNDNHGAGGTAAVSYQGATVFEPEVGYYNDPVAVFDFASLYPSIIMAHNLCYSTLLVPGGEYPVDPADVYSVTLENGVTHRFVRASVRVSVLSELLNKWVSQRRAVRECMRECQDPVRRMLLDKEQMALKVTCNAFYGFTGVVNGMMPCLPIAASITRIGRDMLERTARFIKDNFSEPCFLHNFFNQEDYVVGTREGDSEESSALPEGLETSSGGSNERRVEARVIYGDTDSVFVRFRGLTPQALVARGPSLAHYVTACLFVEPVKLEFEKVFVSLMMICKKRYIGKVEGASGLSMKGVDLVRKTACEFVKGVTRDVLSLLFEDREVSEAAVRLSRLSLDEVKKYGVPRGFWRILRRLVQARDDLYLHRVRVEDLVLSSVLSKDISLYRQSNLPHIAVIKRLAARSEELPSVGDRVFYVLTAPGVRTAPQGSSDNGDSVTAGVVSRSDAIDGTDDDADGGGVEESNRRGGEPAKKRARKPPSAVCNYEVAEDPSYVREHGVPIHADKYFEQVLKAVTNVLSPVFPGGETARKDKFLHMVLPRRLHLEPAFLPYSVKAHECC
notes: also called GAD-UL54; source: yeast two-hybrid fusion (S. cerevisiae L40)

How the values were obtained:
Experiment in all cases: two-hybrid
[1] = target: T1, HCMV UL44 (DNA polymerase processivity …); details: remark: other sources report otherwise
[2] = target: T2, human Ubc9 (SUMO-conjugating enzyme E2), yeast two-hybrid fusion (human, UniProt P63279 1-158); details: partners not purified
T2 construct: also called GAD-Ubc9; LexA-Ubc9

[3] = target: B2; details: partners not purified

T2 sequence (P63279 whole entry, the tested form may be a part): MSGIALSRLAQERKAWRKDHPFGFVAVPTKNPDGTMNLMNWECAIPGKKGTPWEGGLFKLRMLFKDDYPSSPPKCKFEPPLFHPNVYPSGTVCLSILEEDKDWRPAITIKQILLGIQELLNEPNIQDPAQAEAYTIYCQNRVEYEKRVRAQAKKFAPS

B1 showed a β-gal expression [1] of 7640 Units.

In the case of B2, the β-gal expression [2] is reported as 6920 Units.

B3 showed a β-gal expression [3] of 8240 Units.

— PMC3499415, “The Human Cytomegalovirus DNA Polymerase Processivity Factor UL44 Is Modified by SUMO in a DNA-Dependent Manner” (PLoS ONE, 2012)
